IntAct's records for PubMed 22863753

B1: NLR family CARD domain-containing protein 3 (Homo sapiens), Q7RTR2 (parent)
chain: MRKQEVRTGREAGQGHGTGSPAEQVKALMDLLAGKGSQGSQAPQALDRTPDAPLGPCSNDSRIQRHRKALLSKVGGGPELGGPWHRLASLLLVEGLTDLQLREHDFTQVEATRGGGHPARTVALDRLFLPLSRVSVPPRVSITIGVAGMGKTTLVRHFVRLWAHGQVGKDFSLVLPLTFRDLNTHEKLCADRLICSVFPHVGEPSLAVAVPARALLILDGLDECRTPLDFSNTVACTDPKKEIPVDHLITNIIRGNLFPEVSIWITSRPSASGQIPGGLVDRMTEIRGFNEEEIKVCLEQMFPEDQALLGWMLSQVQADRALYLMCTVPAFCRLTGMALGHLWRSRTGPQDAELWPPRTLCELYSWYFRMALSGEGQEKGKASPRIEQVAHGGRKMVGTLGRLAFHGLLKKKYVFYEQDMKAFGVDLALLQGAPCSCFLQREETLASSVAYCFTHLSLQEFVAAAYYYGASRRAIFDLFTESGVSWPRLGFLTHFRSAAQRAMQAEDGRLDVFLRFLSGLLSPRVNALLAGSLLAQGEHQAYRTQVAELLQGCLRPDAAVCARAINVLHCLHELQHTELARSVEEAMESGALARLTGPAHRAALAYLLQVSDACAQEANLSLSLSQGVLQSLLPQLLYCRKLRLDTNQFQDPVMELLGSVLSGKDCRIQKISLAENQISNKGAKALARSLLVNRSLTSLDLRGNSIGPQGAKALADALKINRTLTSLSLQGNTVRDDGARSMAEALASNRTLSMLHLQKNSIGPMGAQRMADALKQNRSLKELMFSSNSIGDGGAKALAEALKVNQGLESLDLQSNSISDAGVAALMGALCTNQTLLSLSLRENSISPEGAQAIAHALCANSTLKNLDLTANLLHDQGARAIAVAVRENRTLTSLHLQWNFIQAGAAQALGQALQLNRSLTSLDLQENAIGDDGACAVARALKVNTALTALYLQVASIGASGAQVLGEALAVNRTLEILDLRGNAIGVAGAKALANALKVNSSLRRLNLQENSLGMDGAICIATALSGNHRLQHINLQGNHIGDSGARMISEAIKTNAPTCTVEM
partner: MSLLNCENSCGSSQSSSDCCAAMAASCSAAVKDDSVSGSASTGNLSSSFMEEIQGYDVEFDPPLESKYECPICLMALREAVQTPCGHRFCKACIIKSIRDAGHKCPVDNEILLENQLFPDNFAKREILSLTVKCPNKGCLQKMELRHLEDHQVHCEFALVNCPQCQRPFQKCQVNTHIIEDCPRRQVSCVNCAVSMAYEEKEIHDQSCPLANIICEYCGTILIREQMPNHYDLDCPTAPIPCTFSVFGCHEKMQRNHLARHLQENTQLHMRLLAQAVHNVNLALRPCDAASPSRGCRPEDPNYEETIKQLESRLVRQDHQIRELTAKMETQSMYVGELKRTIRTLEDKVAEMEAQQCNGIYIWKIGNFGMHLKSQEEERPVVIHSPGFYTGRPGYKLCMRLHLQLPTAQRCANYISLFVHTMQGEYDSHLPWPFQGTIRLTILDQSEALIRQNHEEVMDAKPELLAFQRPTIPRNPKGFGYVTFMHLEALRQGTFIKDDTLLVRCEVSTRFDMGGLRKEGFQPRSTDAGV

Variants of: B1
Details: with traf6_mouse Traf6, P70196

Row | Variant | effect of a mutation on the interaction
1 | S457A;L458A;Q459A;E460A | decreasing interaction
